Test results as given in US6495664.

System: GFP mutant K8 (-2M, -1G, M1R, S2R, K3R, G4A, E5S, E6I, L7I, S65A, K79R, E90N, N149K, V163A, I167T)

mouse recombinant protein kinase A catalytic subunit (Calbiochem #539-487)
apparent Km of phosphorylation, measured by 32P incorporation: an apparent Km of 9 µM
estimated Km of phosphorylation, based on quenching alone: an estimated Km of 7.7 µM
